Laboratory results as given in a protein production outcome set (Wang et al. 2014).

Test: label from the status in PepcDB records

## MCAEFVERRLAAILAADVVGYSRLLEANEEETLNALRQHRRELFDPAVAIHGGHIIKVMGDGFLVEFGSVLSAARCAVEIQRGMLERNIGIPGDRHFAFRIGLNLGDIVFDEDDFHGDGINVAVRLQALAAPGGIACSAAVRHEVANKLDLGFADQGAMTVKNISRPVHVYFADWGNAPSSEEVPLTAGGHTRAPVNKPSVAVLPFANISNDPEQDFFSDGITEDLITDLSNVSGLFVLSRNTVFTWKGRSENLQRIAAELGVAYIVEGSVRKAGNQVRINAELIEAASDGHVWAARYDRDLTDIFEMQDEIVKAIVGQLKVKLLPEEKRAIEQAPTESVEAYTHFLRGREYYHIASRSNHLMARQSFARAIELDPGYARAYAGIAVCDARLRSQFGAEIPVEDILANTATALVIDPNLAEAYAAKGFALAVAGNRTEAVSAFAQALSLDANCHEANRYYAEFCVTEGQFELAATHFQRAMEIKPADYGAPIMLVNVLRSLGQIDKASSYARIALKRAEEELRLHPENANVACLGATALAFLGVRDTALEWLARSLATDPDDINIQYNAACTYALLGEIDRAIDLLEVWMPQVGIEMRLWFKNDSDLDPIRSHPRYLKLVSLSE
  protein production: failed

## MCDYDEPLYLISVVAKILGVHPQTLRQYEKEGLIEPSRTDGKMRLYSQRDMDKIKTILRLTRDMGVNLAGVDIILRLKEKLDELDNLNKELQDALHKHSKNTKTPTKNLNTPTNFYELILFKK
  protein production: failed

## MCHSGTFHLTAGESVEWVLTWAPSFEPHPPMPDYTRSLESTLSFWASWVEELPHQRLYDAEVRRSMLVLRALTDLQTGGIVAAPTTSLPEDFGGIRNWDYRYVWLRDSALTIEALVEYGFSQAALQWRTWLLRAIAGDPENLRIMYGLGGERHLPERELQHLRGYENSVPVRVGNGAAEQYQADVVGEVMVALETIRRAGCLEDEFSWGMQKAILDFQEANFDRKDQGIWEMRSEPQYFTHGRAMMWAGFDRGIKAIEEFNLDGPIERWRELRAKLREEIMTNGFNEEIQSFTQCYDNTQVDASLLQLAQIGFIGFDDPKMLSTVARIEQELLDAHGFLHRYHTDGSDGLAGDEYPFLICSFWLVEQYASSNRLDEAKEKMNRILAVQSPLGLLAEEYSTHHGRLAGNYPQAFSHIGLISAARAINFEEARNRLEHHHHHH
  protein production: failed

## MCKPPMRLLTQTGLPRSSERQIRILEIVTGNRKGKHQPKPISKPQPNISMPKIIEAIYENGVFKPLQKVNFRPGSKVRIVIQEDKKEILRKYKGVFGKAEVEELREYEGEVMLLEHHHHHH
  protein production: failed

## MCLGIPARVVEVLDGPLPMAVVDMAGEQRPCSVMYVPEVQVGQFVLLQNGYAMEVLDEKSAQESLATIAEFNLVQQVQLAPRE
  protein production: failed

## MCPYITRRNDVMNDTFDYIFGYALSTALARYWVNPDGSQGGIVSIDAKIDASVMIGKDAVVFPDANIAERACIAEKVCIGNAVRIGKHAMIDHGASIGDRSNIGERSRIYQDSFIGENAVIAARACIGEKVYIGNFVSLAKDSIIDDGVNIGERSSIGERTRIRQGSFIRKGCVIRQRSVIAKRAYIDEGVYIGNVVRIGEESMIHRRSRIGSGARIGGSVCIGVYCRIDGSVRIGQHADIGEWVNIDGHARIGNFARIGEWSRIGGRANIAAHVVLEKQSIIHSETCIQDASKTSVDMPKDAGI
  protein production: failed

## MCSYARATDANGESFIYCRTWQGQFFRFKLEDRVYDYVTTFAKSDACLATDPDDPTKIYCALNEYNKITCIDLTKNPEDSGFETDVCGIQGPGAYQDGHVSVARLNNPQQILSMHDPETGEKVIYICDANNNCVRMYNMETKLMSTVAGIGGKSGYAAGNPTVSRMNRPYGICITPENDIYVADAGNKVIMKLAFMLEHHHHHH
  protein production: failed

## MCTPFIFVVYAKSKYLCVLISNEMGKNKLEKFADMASYPHVFEYPYSAVDNVPFDMKGKWHQEFFGNDHPIVLELGCGRGEYTVGLGRMFPDKNFIAVDIKGSRMWTGATESLQAGMKNVAFLRTNIEIIERFFAAGEVSEIWLTFSDPQMKKATKRLTSTYFMERYRKFLKPDGIIHLKTDSNFMFTYTKYMIEANQLPVEFITEDLYHSDLVDDILSIKTYYEQQWLDRGLNIKYIKFRLPLEHHHHHH
  protein production: failed

## MCVHTRKPDGLHPKPVSHCPVIDTGQSEWRSFTFTTICMGFRPRQAYRQPSPIANETENTMSNSNIQQEAQDIHDQLPESVDASPEDIEERLTTLVDDYRVPLDEAQRSVVSTYLSDSDVDRDDVSSENENQQVDLEEITEAEQWVDITAKVADLWEPRSDSIAQVGLLGDETGTIKFTKWAKSDLEALTEGQVYRLGNVVTDEYQGQYSVKLNRTTTIEALDQDIEVGDDTTDAEGALVDIQSGSGLIKRCPEDDCTRVLQNGRCSEHGEGEGEFDLRIKGVIDNGDTVQEVIFDKEATEQVADITLAQAQEMAMDALDTSVVADEIREVTLGRYYRVQGPELGRYLLVNEFEQLAEMHDPEQLLITARSILEHHHHHH
  protein production: not failed

## MCVSSSIQTAILDWQCVDGIDIPVSRQFGDVYFSKDNGLLETRHVFLNGNNLTERLADLKPYQYFCVGETGFGTGLNILAVWQLWQQVRPDNHSHLHVISVEKFPLSKSDLERALRAWPELIILAEQLIEQYPFPIAGCHRLNFPDERFSLDLWLGDAHDVFPSIVKTHSVDAWFLDGFAPSCNPELWETQVLNQIVRLSDYGTTFASFSVAGILKRGLKAHGIHISRPRGFGHKREMLKAIWPFPDHESTTTVKGNQPSTQQHFAVIGAGIAGLHCAWSLAQRGHRVTLVDQSQPLSGASGNPLALLNPKLCPITQCHDHLMVLCWQYARRFYQNFEAFRLIQVNQLALKASDSLLNLAEQYPKDVLDAHSAQQSPLETQYDYLTLHYAGVISPQLFCNQVLQHPLIEFKQFKINQIIEIDGTVQLLSSEQAILESNAAIVCCARESGKLFEQYPTLKPIRGQVSWFEQHTFPFAPDQAFSYGGYCMQLHPQQLILGASFHPQRDDDEVLLEDHVHNFNLIHSVFPAYAQTLPPVEEWHGRASVRAQSPDYFPLVGQLQDHSKLFTLAGLGSKGYLFAPLNSEILVAHILGEACPVSANLLQKLNPQRFLKKVKIKKPYYSS
  protein production: failed

## MDAARFPADARVRVLARRFPPYHRDSPCLAILDRFLHDPTLSAAAVVDDAMRPVGLIDRYSLVEQFLHPYSRDLYHKHSIAAFMDPEPVIVEADSSIDDLSRIIIDAGMRHMVSGFIVTEDGLYLGIGSGHDLFEEVANRKQNHLYHLAHYDPLTSLPNRLLLNDRLKRACLRGQRGGYRIALLFIDLDRFKLVNDTLGHAAGDQLLQGVAGRFAACVRKVDTVARLGGDEFTVLLEPVQGPDEALAVAAKLAQSLERPFLIQNHEITTSASIGVVLFPEHDATVEGLMRKADAAMYCAKREGRNRFALFTEEMNSTVVERVTLESYLNAALEKGEFCCHFQPQMATADDRIVGVEALLRWTNPVLGRVPPLKFIPVAEDTGLILPLGLWALETACAQQVRWLSQGLPPLRMAVNISPLQFRNREFCDQVRAIVQRTGIRAEHLELELTESAVMADAESSVGILRELRDSGIRLAIDDFGTGYSSLSYLRKFPLDRLKIDRSFVSGIDRIPANELIVKAIVALGGSLGLDVIAEGVETPEELECIERCGCSEYQGFRLSEPLTAEDFAHWFEDSGYVLEHHHHHH
  protein production: failed

## MDAEKKSAHFRQISSYKPQLLVLSSIQENPSSKISEKANIKADNDAEIGVFGAEKYFSMKLDHVDSTADITKQHEKENTHDHPNANPNPNPNPHPHPHPQLTKTTSSRSKTSRHGTPSVRSESSCNSQTFLMRINNHNENKQRKMNDTSISFGGFRCYGPCSGVKTVHTDPKNSCKSRNSDRDFVAYDARKHNDKPRLHFEAKKADFHAQEKISLPIQRSDIAMNLERKLSLLTWDAIPNQLSTKNNNHNNNGNNSSMSSNTQEEETASVASSDLFEIENITSSVYEPSEASIGWSVVTGSMADQSVISDFDMMKRVTRNGPVVKTKPVIGEKVRSAGFLSGCKSHKAVSVVDSSRKVKETAKVDHHEMSHQKKFKTEIRIQDLSFL
  protein production: failed
